Assays:
[1] = target: T1, Biotin-… (epitope sequence from candidal Hsp90) (Candida); assay: ELISA, biotinylated peptide on streptavidin plate, anti-His-HRP detection; Site 2; sample in 0.5 M urea, 0.2 M L-arginine pH 9.5
[2] = target: T1, Biotin-… (epitope sequence from …); assay: ELISA, biotinylated peptide on streptavidin plate, anti-His-HRP detection; Site 1; sample in 50 mM Tris, 1 M sucrose, ~0.2% Tween20, 3 mM DTT, pH 3.0
[3] = target: T1, Biotin-… (epitope sequence from …); assay: ELISA, biotinylated peptide on streptavidin plate, anti-His-HRP detection; Site 1; sample in 0.5 M urea, 0.2 M L-arginine pH 9.5
[4] = target: T1, Biotin-… (epitope sequence from …); assay: ELISA, biotinylated peptide on streptavidin plate, anti-His-HRP detection; Site 1; sample in 50 mM Tris, pH 9.0
[5] = target: T1, Biotin-… (epitope sequence from …); assay: ELISA, biotinylated peptide on streptavidin plate, anti-His-HRP detection; Site 2; sample in 50 mM Tris, 1 M sucrose, ~0.2% Tween20, 3 mM DTT, pH 3.0
[6] = target: T1, Biotin-… (epitope sequence from …); assay: ELISA, biotinylated peptide on streptavidin plate, anti-His-HRP detection; Site 1; sample in 50 mM Tris, 3 mM DTT, pH 9.0
[7] = target: T1, Biotin-… (epitope sequence from …); assay: ELISA, biotinylated peptide on streptavidin plate, anti-His-HRP detection; Site 2; sample in 50 mM Tris, 3 mM DTT, pH 9.0
[8] = target: T1, Biotin-… (epitope sequence from …); assay: ELISA, biotinylated peptide on streptavidin plate, anti-His-HRP detection; Site 2; sample in 50 mM Tris, pH 9.0

B1: MYC123 ("wild type" Mycograb) scFv peptide (scFv)
scFv: MAEVQLVESGAEVKKPGESLRISCKGSGCIISSYWISWVRQMPGKGLEWMGKIDPGDSYINYSPSFQGHVTISADKSINTAYLQWNSLKASDTAMYYCARGGRDFGDSFDYWGQGTLVTVSSGGGGSGGGGSGGGGSDVVMTQSPSFLSAFVGDRITITCRASSGISRYLAWYQQAPGKAPKLLIYAASTLQTGVPSRFSGSGSGTEFTLTINSLQPEDFATYYCQHLNSYPLTFGGGTKVDIKRAAALEHHHHHH
In the case of B1, the ELISA activity [%] compared with the reference standard [1] is reported as 78%, the ELISA activity [%] compared with the reference standard [2] is reported as 135% and the ELISA activity [%] compared with the reference standard [3] is reported as 90%. It also gave an ELISA activity [%] compared with the reference standard [4] of 71%, an ELISA activity [%] compared with the reference standard [5] of 130% and an ELISA activity [%] compared with the reference standard [6] of 85%. It also gave an ELISA activity [%] compared with the reference standard [7] of 131% and an ELISA activity [%] compared with the reference standard [8] of 95%.

From patent publication US20090136484A1
